In US20120316071A1 one finds ECL signal and Signal/Blank data, which are given here for 10 substances.

Several values for one entry are separate records, joined by “and”; a condition that tells them apart may be missing. Equal entries are not always repeated.

Assay [1] deals with rHuman Erythropoietin R/Fc Chimera (human) (UniProt P19235). The assay can be described thus: ECL multispot (MSD) binding assay; antigen spotted on plate, Fab in solution.
Assay [2] has as its target rHuman EGF R/Fc Chimera, CF (R&D Systems Cat#344-ER) (human) (UniProt P00533). The assay can be described thus: ECL Multispot (MSD), antigen spotted, Fab 0.50 (column head 'Fab [µM]'); blank 206.
Assay [3] concerns the target rHuman Erythropoietin R/Fc Chimera, CF (R&D Systems Cat#963-ER) (human) (UniProt P19235). The assay is described as above.
The target of assay [4] is rHuman EGF R/Fc Chimera, CF (R&D Systems Cat#344-ER) (human) (UniProt P00533). The assay can be described thus: ECL Multispot (MSD), antigen spotted, Fab 5.00 (column head 'Fab [µM]'); blank 268.
Assay [5] deals with rHuman Erythropoietin R/Fc Chimera, CF (R&D Systems Cat#963-ER) (human) (UniProt P19235). The assay is described as above.
The target of assay [6] is rHuman EGF R/Fc Chimera, CF (R&D Systems Cat#344-ER) (human) (UniProt P00533). The assay can be described thus: ECL Multispot (MSD), antigen spotted, Fab 50.00 (column head 'Fab [µM]'); blank 223.
In assay [7] the target is rHuman Erythropoietin R/Fc Chimera, CF (R&D Systems Cat#963-ER) (human) (UniProt P19235). The description is as above.
The target in assay [8] is rHuman EGF R/Fc Chimera, CF (R&D Systems Cat#344-ER) (human) (UniProt P00533). Put plainly: ECL Multispot (MSD), antigen spotted, Fab 500.00 (column head 'Fab [µM]'); blank 495.
Assay [9] deals with rHuman Erythropoietin R/Fc Chimera, CF (R&D Systems Cat#963-ER) (human) (UniProt P19235). Described as above.
Assay [10] shares this target. The assay can be described thus: ECL Multispot (MSD), antigen spotted; Fab 5 (µM); blank 102; first of duplicates.
Assay [11] has the same target. The assay can be described thus: ECL Multispot (MSD), antigen spotted; Fab 50 (µM); blank 332; first of duplicates.
Assay [12] shares this target. The assay can be described thus: ECL Multispot (MSD), antigen spotted; Fab 0.50 (µM); blank 95; first of duplicates.
The target is the same in assay [13]. Put plainly: ECL Multispot (MSD), antigen spotted; Fab 500 (µM); blank 570; first of duplicates.
Assay [14] shares this target. Put plainly: MSD ECL multispot assay, antigen spotted on plate, Fab in solution; blank spot of this row 274. Also: test concentration or dose not given here.
Assay [15] shares this target. Put plainly: MSD ECL multispot assay, antigen spotted on plate, Fab in solution; blank spot of this row 277. Also: test concentration or dose not given here.
For assay [16] the target is unchanged. The assay can be described thus: MSD ECL multispot assay, antigen spotted on plate, Fab in solution; blank spot of this row 282. Also: test concentration or dose not given here.
For assay [17] the target is unchanged. Put plainly: ECL multispot (MSD) binding assay, antigen spotted on plate. Also: test concentration or dose not given here.
Assay [18] addresses rHuman Erythropoietin R/Fc Chimera, CF (human) (UniProt P19235). The assay can be described thus: ECL multispot (MSD) assay, antigen spotted on the plate, Fab in solution; blank spot of the same well 284. Also: test concentration or dose not given here.
In assay [19] the target is Recombinant Human DLL4 (human) (UniProt Q9NR61). The assay can be described thus: ECL (MSD) multispot binding assay, DLL4 signal over blank spot.
For assay [20] the target is unchanged. The assay can be described thus: ECL (MSD) multispot binding assay, DLL4 spotted on plate, Fab in solution.
Assay [21] deals with Recombinant Human DLL4 (delta-like protein 4) (human) (UniProt Q9NR61). Put plainly: ECL multispot (MSD) binding assay; antigen spotted on plate, Fab in solution.
The target of assay [22] is rHuman ErbB2/Fc Chimera, CF (R&D Systems Cat#1129-ER) (human) (UniProt P04626). Put plainly: MSD Multispot ECL, antigen spotted on plate, Fab in solution; blank spot of the row 337.
Assay [23] addresses rHuman IGF-1 sR, (IGF-1 sR), CF (R&D Systems Cat#391-GR) (human) (UniProt P08069). The assay is described as above.
Assay [24] addresses rHuman ErbB2/Fc Chimera, CF (R&D Systems Cat#1129-ER) (human) (UniProt P04626). Put plainly: MSD Multispot ECL, antigen spotted on plate, Fab in solution; blank spot of the row 373.
Assay [25] concerns the target rHuman IGF-1 sR, (IGF-1 sR), CF (R&D Systems Cat#391-GR) (human) (UniProt P08069). The description is as above.
The target in assay [26] is rHuman CD44/Fc Chimera, CF (R&D Systems Cat#3660-CD) (human) (UniProt P16070). Put plainly: MSD Multispot ECL, antigen spotted on plate, Fab in solution; blank spot of the row 297.
Assay [27] deals with rHuman ErbB2/Fc Chimera, CF (R&D Systems Cat#1129-ER) (human) (UniProt P04626). The assay is described as above.
The target of assay [28] is rHuman IGF-1 sR, (IGF-1 sR), CF (R&D Systems Cat#391-GR) (human) (UniProt P08069). Described as above.
For assay [29], the target named is rHuman CD44/Fc Chimera, CF (R&D Systems Cat#3660-CD) (human) (UniProt P16070). The assay can be described thus: MSD Multispot ECL, antigen spotted on plate, Fab in solution; blank spot of the row 300.
In assay [30] the target is rHuman ErbB2/Fc Chimera, CF (R&D Systems Cat#1129-ER) (human) (UniProt P04626). Described as above.
Assay [31] deals with rHuman IGF-1 sR, (IGF-1 sR), CF (R&D Systems Cat#391-GR) (human) (UniProt P08069). The assay is described as above.
The target of assay [32] is rHuman ErbB2/Fc Chimera, CF (R&D Systems Cat#1129-ER) (human) (UniProt P04626). Put plainly: MSD Multispot ECL, antigen spotted on plate, Fab in solution; blank spot of the row 316.
For assay [33], the target named is rHuman IGF-1 sR, (IGF-1 sR), CF (R&D Systems Cat#391-GR) (human) (UniProt P08069). The description is as above.
The target of assay [34] is rHuman ErbB2/Fc Chimera, CF (R&D Systems Cat#1129-ER) (human) (UniProt P04626). The assay can be described thus: MSD Multispot ECL, antigen spotted on plate, Fab in solution; blank spot of the row 351.
For assay [35], the target named is rHuman IGF-1 sR, (IGF-1 sR), CF (R&D Systems Cat#391-GR) (human) (UniProt P08069). Described as above.

As to “Fab VH1-46_IGHD6-6*01_IGHJ1*01 S102A/S103P/S104F/H111F (APFF) & L6_IGKJ1*01”, the ECL signal in assay [1] came to 433; in assay [2], 266; in assay [3], 298; in [4] it was 303; in [5] it was 423; in assay [6] it was 552. Also, the ECL signal in assay [7] is 879; in [8], 2900; in assay [9], 4970; in assay [10], 294; in [11] it was 736; in [12], 122. The ECL signal in assay [13] was 4720; in assay [14], 473; in assay [15], 467; in [16] it was 1060.

In assay [17], “Fab VH1-46_IGHD6-6*01_IGHJ1*01 S102A/S103P/S104F/H111F (APFF) & L6_IGKJ1*01 S31A” displayed an ECL signal of 461.

In assay [18], “Fab VH1-46_IGHD6-6*01_IGHJ1*01 S102A/S103P/S104F/H111F (APFF) & L6_IGKJ1*01 S31Y” gave an ECL signal of 604.

As to “Fab VH1-46_IGHD6-6*01_IGHJ1*01 S102A/S103P/S104F/H111F (APFF) & L6_IGKJ1*01 S92R”, the Signal/Blank in assay [19] came out at 1.7. The ECL signal in assay [20] is 418; in assay [21] it was 418 and 587.

For “Fab VH5-51_IGHD5-18*01>3_IGHJ4*01 G100K/G104T F29A & V3-4_IGLJ1*01”, the ECL signal in [22] was 1040; in [23], 945.

On to “Fab VH5-51_IGHD5-18*01>3_IGHJ4*01 G100K/G104T G24A & V3-4_IGLJ1*01”, for which the ECL signal in assay [24] worked out at 869; in assay [25], 879.

For “Fab VH5-51_IGHD5-18*01>3_IGHJ4*01 G100K/G104T G35A & V3-4_IGLJ1*01”, the ECL signal in assay [26] worked out at 624; in assay [27], 911; in [28], 899.

In the case of “Fab VH5-51_IGHD5-18*01>3_IGHJ4*01 G100K/G104T I34A & V3-4_IGLJ1*01”, the results for the ECL signal in assay [29], in assay [30] and in assay [31] were 608, 1150 and 923, respectively.

In the case of “Fab VH5-51_IGHD5-18*01>3_IGHJ4*01 G100K/G104T S28A & V3-4_IGLJ1*01”, the results for the ECL signal in assay [32] and in assay [33] were 1070 and 924, respectively.

As to “Fab VH5-51_IGHD5-18*01>3_IGHJ4*01 G100K/G104T T30A & V3-4_IGLJ1*01”, the values for the ECL signal in [34] and in assay [35] were 1070 and 968, respectively.
